In US20260176319A1 (KALLYOPE, published 2026):
Each block holds one binder with its values, some of them ahead of it. Starred links: 1 amine or outer side, 2 acyl side, 3 side chain; linkers in the order of their positions; H or OH if unused. Non-standard residues stand in square brackets, D forms with d. *: point of attachment. Trp(6-Me) = Cc1ccc2c(C[C@H](N)C(=O)O)c[nH]c2c1; Trp(7-Me) = Cc1cccc2c(C[C@H](N)C(=O)O)c[nH]c12; d(γGlu) = O=C(O)[C@@H](CCC(=O)[*:2])N[*:1]; C18 diacid = O=C(O)CCCCCCCCCCCCCCCCC(=O)*; Palmitoyl = CCCCCCCCCCCCCCCC(=O)*; 3Pal = N[C@@H](Cc1cccnc1)C(=O)O; Nle = CCCC[C@H](N)C(=O)O; AEEA = NCCOCCOCC(=O)O; Aib = CC(C)(N)C(=O)O; Ava = NCCCCC(=O)O; Sar = CNCC(=O)O

Biological target: human GRP receptor (human, UniProt P30550 1-384)
Assay: cell-based or functional assay

Chain of human GRP receptor (P30550 whole entry): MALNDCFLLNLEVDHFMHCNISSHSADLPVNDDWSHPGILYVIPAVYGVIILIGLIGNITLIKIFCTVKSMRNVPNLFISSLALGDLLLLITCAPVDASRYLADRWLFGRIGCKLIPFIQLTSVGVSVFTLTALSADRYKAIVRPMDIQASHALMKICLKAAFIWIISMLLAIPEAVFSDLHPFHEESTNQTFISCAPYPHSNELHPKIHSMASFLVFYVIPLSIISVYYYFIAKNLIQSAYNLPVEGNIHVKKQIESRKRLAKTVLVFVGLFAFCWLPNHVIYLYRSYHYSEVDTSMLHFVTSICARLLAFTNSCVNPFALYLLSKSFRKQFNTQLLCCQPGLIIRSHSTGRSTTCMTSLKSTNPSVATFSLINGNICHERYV

B1: Peptide 80 (peptide)
peptide: {C18 diacid}-[d(γGlu)][Ava]GNHWAV[dA]HL[Nle]-NH2
SMILES: CCCC[C@H](NC(=O)[C@H](CC(C)C)NC(=O)[C@H](Cc1c[nH]cn1)NC(=O)[C@@H](C)NC(=O)[C@@H](NC(=O)[C@H](C)NC(=O)[C@H](Cc1c[nH]c2ccccc12)NC(=O)[C@H](Cc1c[nH]cn1)NC(=O)[C@H](CC(N)=O)NC(=O)CNC(=O)CCCCNC(=O)CC[C@@H](NC(=O)CCCCCCCCCCCCCCCCC(=O)O)C(=O)O)C(C)C)C(N)=O
hIP1 GRPR EC50: 5.11 nM

B2: Peptide 67 (peptide)
peptide: {C18 diacid}-[d(γGlu)][AEEA][AEEA]GEHWAV[dA][3Pal]L[Nle]-NH2
SMILES: CCCC[C@H](NC(=O)[C@H](CC(C)C)NC(=O)[C@H](Cc1cccnc1)NC(=O)[C@@H](C)NC(=O)[C@@H](NC(=O)[C@H](C)NC(=O)[C@H](Cc1c[nH]c2ccccc12)NC(=O)[C@H](Cc1c[nH]cn1)NC(=O)[C@H](CCC(=O)O)NC(=O)CNC(=O)COCCOCCNC(=O)COCCOCCNC(=O)CC[C@@H](NC(=O)CCCCCCCCCCCCCCCCC(=O)O)C(=O)O)C(C)C)C(N)=O
hIP1 GRPR EC50: 1050 nM

B4: Peptide 69 (peptide)
peptide: {C18 diacid}-[d(γGlu)][AEEA][AEEA]GNHWAV[dA]HLR-NH2
SMILES: CC(C)C[C@H](NC(=O)[C@H](Cc1c[nH]cn1)NC(=O)[C@@H](C)NC(=O)[C@@H](NC(=O)[C@H](C)NC(=O)[C@H](Cc1c[nH]c2ccccc12)NC(=O)[C@H](Cc1c[nH]cn1)NC(=O)[C@H](CC(N)=O)NC(=O)CNC(=O)COCCOCCNC(=O)COCCOCCNC(=O)CC[C@@H](NC(=O)CCCCCCCCCCCCCCCCC(=O)O)C(=O)O)C(C)C)C(=O)N[C@@H](CCCNC(=N)N)C(N)=O
hIP1 GRPR EC50: > 10000 nM

B5: Peptide 70 (peptide)
peptide: {C18 diacid}-[d(γGlu)][AEEA][AEEA]GEHW[Aib]V[dA]HL[Nle]-NH2
SMILES: CCCC[C@H](NC(=O)[C@H](CC(C)C)NC(=O)[C@H](Cc1c[nH]cn1)NC(=O)[C@@H](C)NC(=O)[C@@H](NC(=O)C(C)(C)NC(=O)[C@H](Cc1c[nH]c2ccccc12)NC(=O)[C@H](Cc1c[nH]cn1)NC(=O)[C@H](CCC(=O)O)NC(=O)CNC(=O)COCCOCCNC(=O)COCCOCCNC(=O)CC[C@@H](NC(=O)CCCCCCCCCCCCCCCCC(=O)O)C(=O)O)C(C)C)C(N)=O
hIP1 GRPR EC50: 972 nM

B7: Peptide 78 (peptide)
peptide: {C18 diacid}-[d(γGlu)][AEEA][AEEA][AEEA][AEEA]GNH[Trp(7-Me)]AV[dA]HL-NH2
SMILES: Cc1cccc2c(C[C@H](NC(=O)[C@H](Cc3c[nH]cn3)NC(=O)[C@H](CC(N)=O)NC(=O)CNC(=O)COCCOCCNC(=O)COCCOCCNC(=O)COCCOCCNC(=O)COCCOCCNC(=O)CC[C@@H](NC(=O)CCCCCCCCCCCCCCCCC(=O)O)C(=O)O)C(=O)N[C@@H](C)C(=O)N[C@H](C(=O)N[C@H](C)C(=O)N[C@@H](Cc3c[nH]cn3)C(=O)N[C@@H](CC(C)C)C(N)=O)C(C)C)c[nH]c12
hIP1 GRPR EC50: 14 nM

B8: Peptide 71 (peptide)
peptide: {C18 diacid}-[d(γGlu)][AEEA][AEEA]K(Ac)HWAV[dA]HL[Nle]-NH2
SMILES: CCCC[C@H](NC(=O)[C@H](CC(C)C)NC(=O)[C@H](Cc1c[nH]cn1)NC(=O)[C@@H](C)NC(=O)[C@@H](NC(=O)[C@H](C)NC(=O)[C@H](Cc1c[nH]c2ccccc12)NC(=O)[C@H](Cc1c[nH]cn1)NC(=O)[C@H](CCCCNC(C)=O)NC(=O)COCCOCCNC(=O)COCCOCCNC(=O)CC[C@@H](NC(=O)CCCCCCCCCCCCCCCCC(=O)O)C(=O)O)C(C)C)C(N)=O
hIP1 GRPR EC50: 6.2 nM

B11: Peptide 76 (peptide)
peptide: {C18 diacid}-[d(γGlu)][AEEA][AEEA]GNH[Trp(7-Me)]AV[dA]HL[Nle][Aib]-NH2
SMILES: CCCC[C@H](NC(=O)[C@H](CC(C)C)NC(=O)[C@H](Cc1c[nH]cn1)NC(=O)[C@@H](C)NC(=O)[C@@H](NC(=O)[C@H](C)NC(=O)[C@H](Cc1c[nH]c2c(C)cccc12)NC(=O)[C@H](Cc1c[nH]cn1)NC(=O)[C@H](CC(N)=O)NC(=O)CNC(=O)COCCOCCNC(=O)COCCOCCNC(=O)CC[C@@H](NC(=O)CCCCCCCCCCCCCCCCC(=O)O)C(=O)O)C(C)C)C(=O)NC(C)(C)C(N)=O
hIP1 GRPR EC50: 358 nM

B12: Peptide 75 (peptide)
peptide: Palmitoyl-[d(γGlu)][AEEA][AEEA]GNHWAV[dA]HL[Nle][Aib]-NH2
SMILES: CCCCCCCCCCCCCCCC(=O)N[C@H](CCC(=O)NCCOCCOCC(=O)NCCOCCOCC(=O)NCC(=O)N[C@@H](CC(N)=O)C(=O)N[C@@H](Cc1c[nH]cn1)C(=O)N[C@@H](Cc1c[nH]c2ccccc12)C(=O)N[C@@H](C)C(=O)N[C@H](C(=O)N[C@H](C)C(=O)N[C@@H](Cc1c[nH]cn1)C(=O)N[C@@H](CC(C)C)C(=O)N[C@@H](CCCC)C(=O)NC(C)(C)C(N)=O)C(C)C)C(=O)O
hIP1 GRPR EC50: 18.2 nM

B13: Peptide 79 (peptide)
peptide: {C18 diacid}-[d(γGlu)][AEEA][AEEA]GNH[Trp(6-Me)]AV[dA]HL[Nle]-NH2
SMILES: CCCC[C@H](NC(=O)[C@H](CC(C)C)NC(=O)[C@H](Cc1c[nH]cn1)NC(=O)[C@@H](C)NC(=O)[C@@H](NC(=O)[C@H](C)NC(=O)[C@H](Cc1c[nH]c2cc(C)ccc12)NC(=O)[C@H](Cc1c[nH]cn1)NC(=O)[C@H](CC(N)=O)NC(=O)CNC(=O)COCCOCCNC(=O)COCCOCCNC(=O)CC[C@@H](NC(=O)CCCCCCCCCCCCCCCCC(=O)O)C(=O)O)C(C)C)C(N)=O
hIP1 GRPR EC50: 529 nM

Results, then the binder that gave them:

hIP1 GRPR EC50: 25.5 nM
B3: Peptide 74 (peptide)
peptide: {C18 diacid}-[d(γGlu)][AEEA][AEEA][Aib]NHWAV[dA]HL[Nle]-NH2
SMILES: CCCC[C@H](NC(=O)[C@H](CC(C)C)NC(=O)[C@H](Cc1c[nH]cn1)NC(=O)[C@@H](C)NC(=O)[C@@H](NC(=O)[C@H](C)NC(=O)[C@H](Cc1c[nH]c2ccccc12)NC(=O)[C@H](Cc1c[nH]cn1)NC(=O)[C@H](CC(N)=O)NC(=O)C(C)(C)NC(=O)COCCOCCNC(=O)COCCOCCNC(=O)CC[C@@H](NC(=O)CCCCCCCCCCCCCCCCC(=O)O)C(=O)O)C(C)C)C(N)=O

hIP1 GRPR EC50: 1190 nM
B6: Peptide 73 (peptide)
peptide: {C18 diacid}-[d(γGlu)][AEEA][AEEA]GN[3Pal][Trp(7-Me)]AV[dA]HL[Nle][Sar]-NH2
SMILES: CCCC[C@H](NC(=O)[C@H](CC(C)C)NC(=O)[C@H](Cc1c[nH]cn1)NC(=O)[C@@H](C)NC(=O)[C@@H](NC(=O)[C@H](C)NC(=O)[C@H](Cc1c[nH]c2c(C)cccc12)NC(=O)[C@H](Cc1cccnc1)NC(=O)[C@H](CC(N)=O)NC(=O)CNC(=O)COCCOCCNC(=O)COCCOCCNC(=O)CC[C@@H](NC(=O)CCCCCCCCCCCCCCCCC(=O)O)C(=O)O)C(C)C)C(=O)N(C)CC(N)=O

hIP1 GRPR EC50: > 10000 nM
B9: Peptide 68 (peptide)
peptide: {C18 diacid}-[d(γGlu)][AEEA][AEEA]GNHHAV[dA]HL[Nle]-NH2
SMILES: CCCC[C@H](NC(=O)[C@H](CC(C)C)NC(=O)[C@H](Cc1c[nH]cn1)NC(=O)[C@@H](C)NC(=O)[C@@H](NC(=O)[C@H](C)NC(=O)[C@H](Cc1c[nH]cn1)NC(=O)[C@H](Cc1c[nH]cn1)NC(=O)[C@H](CC(N)=O)NC(=O)CNC(=O)COCCOCCNC(=O)COCCOCCNC(=O)CC[C@@H](NC(=O)CCCCCCCCCCCCCCCCC(=O)O)C(=O)O)C(C)C)C(N)=O

hIP1 GRPR EC50: 184 nM
B10: Peptide 77 (peptide)
peptide: {C18 diacid}-[d(γGlu)][AEEA][AEEA]GK(Ac)HWAV[dA]HL[Nle][Sar]-NH2
SMILES: CCCC[C@H](NC(=O)[C@H](CC(C)C)NC(=O)[C@H](Cc1c[nH]cn1)NC(=O)[C@@H](C)NC(=O)[C@@H](NC(=O)[C@H](C)NC(=O)[C@H](Cc1c[nH]c2ccccc12)NC(=O)[C@H](Cc1c[nH]cn1)NC(=O)[C@H](CCCCNC(C)=O)NC(=O)CNC(=O)COCCOCCNC(=O)COCCOCCNC(=O)CC[C@@H](NC(=O)CCCCCCCCCCCCCCCCC(=O)O)C(=O)O)C(C)C)C(=O)N(C)CC(N)=O

hIP1 GRPR EC50: 7.5 nM
Binder: EXXGNHWAVGHLM (Octadecanedioyl-D-γGlu-OEG-OEG-Gly-Asn-His-Trp-Ala-Val-Gly-His-Leu-Met-NH2) [Peptide 5]

hIP1 GRPR EC50: 308 nM
B14: Peptide 66 (peptide)
peptide: {C18 diacid}-[d(γGlu)][AEEA][AEEA]GNHWAV[dA][3Pal]L[Nle]-NH2
SMILES: CCCC[C@H](NC(=O)[C@H](CC(C)C)NC(=O)[C@H](Cc1cccnc1)NC(=O)[C@@H](C)NC(=O)[C@@H](NC(=O)[C@H](C)NC(=O)[C@H](Cc1c[nH]c2ccccc12)NC(=O)[C@H](Cc1c[nH]cn1)NC(=O)[C@H](CC(N)=O)NC(=O)CNC(=O)COCCOCCNC(=O)COCCOCCNC(=O)CC[C@@H](NC(=O)CCCCCCCCCCCCCCCCC(=O)O)C(=O)O)C(C)C)C(N)=O

hIP1 GRPR EC50: 1050 nM
B15: Peptide 72 (peptide)
peptide: {C18 diacid}-[d(γGlu)][AEEA][AEEA]GN[3Pal]WAV[dA]HL[Nle][Sar]-NH2
SMILES: CCCC[C@H](NC(=O)[C@H](CC(C)C)NC(=O)[C@H](Cc1c[nH]cn1)NC(=O)[C@@H](C)NC(=O)[C@@H](NC(=O)[C@H](C)NC(=O)[C@H](Cc1c[nH]c2ccccc12)NC(=O)[C@H](Cc1cccnc1)NC(=O)[C@H](CC(N)=O)NC(=O)CNC(=O)COCCOCCNC(=O)COCCOCCNC(=O)CC[C@@H](NC(=O)CCCCCCCCCCCCCCCCC(=O)O)C(=O)O)C(C)C)C(=O)N(C)CC(N)=O

hIP1 GRPR EC50: 1420 nM
B16: Peptide 4 (peptide)
peptide: {C18 diacid}-[d(γGlu)][AEEA][AEEA]GNHWAV[Aib]HL[Nle]-NH2
SMILES: CCCC[C@H](NC(=O)[C@H](CC(C)C)NC(=O)[C@H](Cc1c[nH]cn1)NC(=O)C(C)(C)NC(=O)[C@@H](NC(=O)[C@H](C)NC(=O)[C@H](Cc1c[nH]c2ccccc12)NC(=O)[C@H](Cc1c[nH]cn1)NC(=O)[C@H](CC(N)=O)NC(=O)CNC(=O)COCCOCCNC(=O)COCCOCCNC(=O)CC[C@@H](NC(=O)CCCCCCCCCCCCCCCCC(=O)O)C(=O)O)C(C)C)C(N)=O
